Laboratory results reported in the RNAGym collection of RNA variant scans (doi:10.7554/elife.80360).

B1: CPEB3 Ribozyme (parent)
chain: GGGGGCCACAGCAGAAGCGUUCACGUCGCGGCCCCUGUCAGAUUCUGGUGAAUCUGCGAAUUCUGCUGU

Variants of: B1
Test: self-cleavage, relative activity (ratio to wild type); higher = more cleavage; co-transcriptional
In the case of GGGGGCCACAGCGGAAGCGUUCACGUCGCGGCCCUUGUCAGAUUCUGGUGAAUCUGCGAAUUCUGCUGU, the self-cleavage is reported as 0.952.
In the case of GGGGGCCACAGCGGAAGCGUUCACGUCGCGGCCCCUGUAAGAUUCUGGUGAAUCUGCGAAUUCUGCUGU, the self-cleavage is reported as 0.602.
With GGGGGCCACAGCGGAAGCGUUCACGUCGCGGCCCCUGUCAGAUUGUGGUGAAUCUGCGAAUUCUGCUGU the self-cleavage was 0.847.
Work on GGGGGCCACAGCGGAAGCGUUCACGUCGCGGCCCCUGUCAGAUUCUGGUGAAUUUGCGAAUUCUGCUGU yielded a self-cleavage of 0.937.
In the case of GGGGGCCACAGCGGAAGCGUUCACGUCGCGGCCCCUGUCAGAUUCUGGUGAAUCUGAGAAUUCUGCUGU, the self-cleavage is reported as 0.448.
With GGGGGCCACAGCGGAAGCGUUCACGUCGCGGCCCCUGUCAGAUUCUGGUGAAUCUGCGAAUUCUGAUGU the self-cleavage was 0.295.
GGGGGCCACAGCGGAAGCGUUCACGUCGCGGCCCCUGUCAGAUUCUGGUGAAUCUGCGAAUUCUGUUGU gave a self-cleavage of 0.756.
With GGGGGCCACAGCGGAACCGUUCACGUCGCGGCCCCUGUCAGAUUCUGGUGAAUCUGCGAAUUCUGCUGU the self-cleavage was 0.052.
In the case of GGGGGCCACAGCGGAAGCCUUCACGUCGCGGCCCCUGUCAGAUUCUGGUGAAUCUGCGAAUUCUGCUGU, the self-cleavage is reported as 0.13.
With GGGGGCCACAGCGGAAGCGUUCACGUCACGGCCCCUGUCAGAUUCUGGUGAAUCUGCGAAUUCUGCUGU the self-cleavage was 0.139.
GGGGGCCACAGCGGAAGCGUUCACGUCGCUGCCCCUGUCAGAUUCUGGUGAAUCUGCGAAUUCUGCUGU showed a self-cleavage of 0.241.
GGGGGCCACAGCGGAAGCGUUCACGUCGCGCCCCCUGUCAGAUUCUGGUGAAUCUGCGAAUUCUGCUGU gave a self-cleavage of 0.241.
In the case of GGGGGCCACAGCGGAAGCGUUCACGUCGCGGCCCCUGUCACAUUCUGGUGAAUCUGCGAAUUCUGCUGU, the self-cleavage is reported as 0.547.
With GGGGGCCACAGCGGAAGCGUUCACGUCGCGGCCCCUGUCAUAUUCUGGUGAAUCUGCGAAUUCUGCUGU the self-cleavage was 0.583.
Work on GGGGGCCACAGCGGAAGCGUUCACGUCGCGGCCCCUGUCAGAUUCUCGUGAAUCUGCGAAUUCUGCUGU yielded a self-cleavage of 0.997.
GGGGGCCACAGCGGAAGCGUUCACGUCGCGGCCCCUGUCAGAUUCUGCUGAAUCUGCGAAUUCUGCUGU gave a self-cleavage of 0.971.
In the case of GGGGGCCACAGCGGAAGCGUUCACGUCGCGGCCCCUGUCAGAUUCUGGUGAAUCUGCGAAUUCUACUGU, the self-cleavage is reported as 0.653.
In the case of GGGGGCCACAGCGGAAGCGUUCACGUCGCGGCCCCUGUCAGAUUCUGGUGAAUCUGCGAAUUCUCCUGU, the self-cleavage is reported as 0.345.
GGGGGCCACAGCGGAAGCGUUCACGUCGCGGCCCCUGUCAGAUUCUGGUGAAUCUGCGAAUUCUGCUCU showed a self-cleavage of 0.924.
GGGGGCCACAGCGGAAGCGUUCACGUCGCGGCCCCUGUCAGAUUCUGGUGAAUCUGCGAAUUCUGCUUU showed a self-cleavage of 0.95.
For GGGGGCCACAGCGGAAGCGAUCACGUCGCGGCCCCUGUCAGAUUCUGGUGAAUCUGCGAAUUCUGCUGU, the self-cleavage was 0.0779.
Work on GGGGGCCACAGCGGAAGCGCUCACGUCGCGGCCCCUGUCAGAUUCUGGUGAAUCUGCGAAUUCUGCUGU yielded a self-cleavage of 0.199.
Variant GGGGGCCACAGCGGAAGCGUUCACGACGCGGCCCCUGUCAGAUUCUGGUGAAUCUGCGAAUUCUGCUGU has a self-cleavage of 0.767.
GGGGGCCACAGCGGAAGCGUUCACGUCGCGGCCCCGGUCAGAUUCUGGUGAAUCUGCGAAUUCUGCUGU gave a self-cleavage of 0.227.
In the case of GGGGGCCACAGCGGAAGCGUUCACGUCGCGGCCCCUGUCAGAAUCUGGUGAAUCUGCGAAUUCUGCUGU, the self-cleavage is reported as 0.617.
GGGGGCCACAGCGGAAGCGUUCACGUCGCGGCCCCUGUCAGAUACUGGUGAAUCUGCGAAUUCUGCUGU showed a self-cleavage of 0.877.
GGGGGCCACAGCGGAAGCGUUCACGUCGCGGCCCCUGUCAGAUCCUGGUGAAUCUGCGAAUUCUGCUGU gave a self-cleavage of 0.824.
GGGGGCCACAGCGGAAGCGUUCACGUCGCGGCCCCUGUCAGAUUCCGGUGAAUCUGCGAAUUCUGCUGU showed a self-cleavage of 0.927.
With GGGGGCCACAGCGGAAGCGUUCACGUCGCGGCCCCUGUCAGAUUCUGGCGAAUCUGCGAAUUCUGCUGU the self-cleavage was 1.01.
For GGGGGCCACAGCGGAAGCGUUCACGUCGCGGCCCCUGUCAGAUUCUGGGGAAUCUGCGAAUUCUGCUGU, the self-cleavage was 0.989.
GGGGGCCACAGCGGAAGCGUUCACGUCGCGGCCCCUGUCAGAUUCUGGUGAAUCAGCGAAUUCUGCUGU gave a self-cleavage of 0.722.
Work on GGGGGCCACAGCGGAAGCGUUCACGUCGCGGCCCCUGUCAGAUUCUGGUGAAUCUGCGAAAUCUGCUGU yielded a self-cleavage of 0.834.
With GGGGGCCACAGCGGAAGCGUUCACGUCGCGGCCCCUGUCAGAUUCUGGUGAAUCUGCGAAUUCUGCGGU the self-cleavage was 0.897.
With GGGGGCCACAGCGGAAGCGUUCACGUCGCGGCCCCUGUCAGAUUCUGGUGAAUCUGCGAAUUCUGCUGA the self-cleavage was 1.
Variant GGGGGCCACAGCUGAAGCGUUCACGUCGCGGCCCCUGUCAGAUUCUGGUGAAUCUGCGAAUUCUGCUGU has a self-cleavage of 0.888.
GGGGGCCACAGCUGAAGCGUUCCCGUCGCGGCCCCUGUCAGAUUCUGGUGAAUCUGCGAAUUCUGCUGU gave a self-cleavage of 0.793.
GGGGGCCACAGCUGAAGCGUUCACGUCGCGGCCCCUGUCCGAUUCUGGUGAAUCUGCGAAUUCUGCUGU showed a self-cleavage of 0.163.
With GGGGGCCACAGCUGAAGCGUUCACGUCGCGGCCCCUGUCUGAUUCUGGUGAAUCUGCGAAUUCUGCUGU the self-cleavage was 0.265.
In the case of GGGGGCCACAGCUGAAGCGUUCACGUCGCGGCCCCUGUCAGCUUCUGGUGAAUCUGCGAAUUCUGCUGU, the self-cleavage is reported as 0.586.
